# According to patent US20150210756A1 (NEW YORK UNIVERSITY, published 2015):
# Experiments:
# [1] = molecular target: T1, SdgB-glycosylated recombinant SdrC4 protein (S. aureus, UniProt O86487 51-910); experiment: ELISA on coated SdgB-glycosylated SdrC4
# T1 construct: also called SdgB-glycosylated SdrC4 protein
# Protein A = molecular target: T2, Protein A (Staphylococcus aureus, UniProt P38507 37-477); experiment: western blot of S. aureus lysates
# T2 construct: also called S. aureus Protein A; SpA
# human FcγRI = human FcγRI (human, UniProt P12314 16-288); experiment: AlphaScreen competition against biotinylated IgG1
# human FcγRIIIa (V158) = human FcγRIIIa (V158) (human, UniProt P08637 17-208); experiment: AlphaScreen competition against biotinylated IgG1
# Sequence of human FcγRIIIa (V158) (P08637 17-208 F176V limits assumed): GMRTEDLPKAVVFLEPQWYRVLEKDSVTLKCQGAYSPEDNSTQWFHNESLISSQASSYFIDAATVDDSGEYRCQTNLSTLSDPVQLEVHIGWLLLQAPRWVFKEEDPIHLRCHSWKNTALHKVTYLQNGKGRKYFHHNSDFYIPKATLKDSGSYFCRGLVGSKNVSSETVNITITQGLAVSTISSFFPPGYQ
# Sequence of human FcγRI (P12314 16-288 limits assumed): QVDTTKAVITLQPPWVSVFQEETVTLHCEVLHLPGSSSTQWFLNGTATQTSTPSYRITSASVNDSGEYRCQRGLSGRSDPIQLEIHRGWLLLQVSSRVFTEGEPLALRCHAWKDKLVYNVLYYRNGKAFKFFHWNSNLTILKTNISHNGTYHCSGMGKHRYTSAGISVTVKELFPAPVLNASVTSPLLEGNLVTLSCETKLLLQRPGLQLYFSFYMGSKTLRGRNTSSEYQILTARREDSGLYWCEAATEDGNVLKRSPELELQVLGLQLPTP
# T1 sequence (O86487 51-910, tags left off): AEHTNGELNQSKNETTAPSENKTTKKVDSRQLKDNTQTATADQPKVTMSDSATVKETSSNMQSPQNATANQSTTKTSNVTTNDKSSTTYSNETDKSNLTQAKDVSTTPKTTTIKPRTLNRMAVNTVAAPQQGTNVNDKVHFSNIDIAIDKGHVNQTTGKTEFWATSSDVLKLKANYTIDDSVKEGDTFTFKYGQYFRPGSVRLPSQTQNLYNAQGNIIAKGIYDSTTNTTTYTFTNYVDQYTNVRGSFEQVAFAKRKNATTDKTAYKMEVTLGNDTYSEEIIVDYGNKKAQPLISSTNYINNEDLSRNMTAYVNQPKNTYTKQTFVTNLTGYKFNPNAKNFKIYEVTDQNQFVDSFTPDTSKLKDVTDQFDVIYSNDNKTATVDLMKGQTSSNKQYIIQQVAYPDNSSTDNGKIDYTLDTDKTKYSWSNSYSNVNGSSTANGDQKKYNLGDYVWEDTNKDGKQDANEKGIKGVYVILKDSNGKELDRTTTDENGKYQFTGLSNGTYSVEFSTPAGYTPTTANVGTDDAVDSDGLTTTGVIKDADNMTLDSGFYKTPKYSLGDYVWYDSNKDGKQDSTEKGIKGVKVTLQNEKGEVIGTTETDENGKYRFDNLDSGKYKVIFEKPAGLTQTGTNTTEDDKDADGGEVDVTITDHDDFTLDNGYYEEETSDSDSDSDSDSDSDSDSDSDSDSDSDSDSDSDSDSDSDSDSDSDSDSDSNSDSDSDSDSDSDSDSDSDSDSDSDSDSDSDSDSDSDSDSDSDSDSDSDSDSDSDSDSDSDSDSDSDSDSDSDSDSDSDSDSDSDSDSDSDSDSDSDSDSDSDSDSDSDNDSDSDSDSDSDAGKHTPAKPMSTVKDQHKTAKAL
Binder,binding result [1],binding result (Protein A),binding result (human FcγRI),binding result (human FcγRIIIa (V158))
"pagibaximab (antibody, V domains shown, also called anti-LTA mAb) VH: EVMLVESGGGLVQPKGSLKLSCAASGFTFNNYAMNWVRQAPGKGLEWVARIRSKSNNYATFYADSVKDRFTISRDDSQSMLYLQMNNLKTEDTAMYYCVRRGASGIDYAMDYWGQGTSLTVSS VL: DIVLSQSPAILSASPGEKVTMTCRASSSVNYMHWYQQKPGSSPKPWISATSNLASGVPARFSGSGSGTSYSLTISRVEAEDAATYYCQQWSSNPPTFGGGTMLEIKR",no binding (tested: starting at 10 µg/mL),–,–,–
"mAb 5133 A6 (Construct 3, CR5133 A6) (antibody) heavy: not shown light: EIVLTQSPATLSLSPGERATLSCRASQSVSGYLGWYQQKPGQAPRLLIYGASSRATGIPDRFSGSGSGTDFTLTISRLEPEDFAVYYCQQYGSSPLTFGGGTKLEIKRTVAAPSVFIFPPSDEQLKSGTASVVCLLNNFYPREAKVQWKVDNALQSGNSQESVTEQDSKDSTYSLSSTLTLSKADYEKHKVYACEVTHQGLSSPVTKSFNRGEC",–,no binding (tested: 2 µg/mL),binds,binds
"mAb 5133 PRASA A6 (Construct 4, CR5133 PRASA A6) (antibody, also called PRASA A6 parental mAb) heavy: EVQLVETGGGLVKPGGSLRLSCSASRFSFRDYYMTWIRQAPGKGPEWVSHISGSGSTIYYADSVRGRFTISRDNAKSSLYLQMDSLQADDTAVYYCARGGRATSYYWVHWGPGTLVTVSSASTKGPSVFPLAPSSKSTSGGTAALGCLVKDYFPEPVTVSWNSGALTSGVHTFPAVLQSSGLYSLSSVVTVPSSSLGTQTYICNVNHKPSNTKVDKKVEPKSCDKTHTCPPCPAPPVAGPDVFLFPPKPKDTLMISRTPEVTCVVVDVSHEDPEVKFNWYVDGVEVHNAKTKPREEQYNSTYRVVSVLTVLHQDWLNGKEYKCKVSNAALPAPIAKTISKAKGQPREPQVYTLPPSRDELTKNQVSLTCLVKGFYPSDIAVEWESNGQPENNYKTTPPVLDSDGSFFLYSKLTVDKSRWQQGNVFSCSVMHEALHNRFTQKSLSLSPGK light: EIVLTQSPATLSLSPGERATLSCRASQSVSGYLGWYQQKPGQAPRLLIYGASSRATGIPDRFSGSGSGTDFTLTISRLEPEDFAVYYCQQYGSSPLTFGGGTKLEIKRTVAAPSVFIFPPSDEQLKSGTASVVCLLNNFYPREAKVQWKVDNALQSGNSQESVTEQDSKDSTYSLSSTLTLSKADYEKHKVYACEVTHQGLSSPVTKSFNRGEC",–,no binding (tested: 2 µg/mL),no binding,binds
